Measured values as given in IntAct's records for PubMed 19955427.

B1: Protein phosphatase 2C 37 (Arabidopsis thaliana (Mouse-ear cress)), P49598 (parent)
chain: MAGICCGVVGETEPAAPVDSTSRASLRRRLDLLPSIKIVADSAVAPPLENCRKRQKRETVVLSTLPGNLDLDSNVRSENKKARSAVTNSNSVTEAESFFSDVPKIGTTSVCGRRRDMEDAVSIHPSFLQRNSENHHFYGVFDGHGCSHVAEKCRERLHDIVKKEVEVMASDEWTETMVKSFQKMDKEVSQRECNLVVNGATRSMKNSCRCELQSPQCDAVGSTAVVSVVTPEKIIVSNCGDSRAVLCRNGVAIPLSVDHKPDRPDELIRIQQAGGRVIYWDGARVLGVLAMSRAIGDNYLKPYVIPDPEVTVTDRTDEDECLILASDGLWDVVPNETACGVARMCLRGAGAGDDSDAAHNACSDAALLLTKLALARQSSDNVSVVVVDLRKRRNNQASS
partner: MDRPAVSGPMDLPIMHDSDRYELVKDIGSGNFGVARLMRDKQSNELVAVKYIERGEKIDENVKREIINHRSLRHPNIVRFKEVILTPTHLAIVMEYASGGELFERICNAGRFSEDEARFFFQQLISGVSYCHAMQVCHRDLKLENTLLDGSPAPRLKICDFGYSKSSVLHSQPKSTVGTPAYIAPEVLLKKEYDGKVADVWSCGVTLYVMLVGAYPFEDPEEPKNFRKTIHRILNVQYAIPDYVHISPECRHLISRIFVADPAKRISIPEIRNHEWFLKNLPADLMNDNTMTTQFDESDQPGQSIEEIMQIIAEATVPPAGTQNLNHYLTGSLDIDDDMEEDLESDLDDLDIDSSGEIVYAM
B2: Serine/threonine-protein kinase SRK2E (Arabidopsis thaliana (Mouse-ear cress)), Q940H6 (parent)
chain: B1 partner
partner: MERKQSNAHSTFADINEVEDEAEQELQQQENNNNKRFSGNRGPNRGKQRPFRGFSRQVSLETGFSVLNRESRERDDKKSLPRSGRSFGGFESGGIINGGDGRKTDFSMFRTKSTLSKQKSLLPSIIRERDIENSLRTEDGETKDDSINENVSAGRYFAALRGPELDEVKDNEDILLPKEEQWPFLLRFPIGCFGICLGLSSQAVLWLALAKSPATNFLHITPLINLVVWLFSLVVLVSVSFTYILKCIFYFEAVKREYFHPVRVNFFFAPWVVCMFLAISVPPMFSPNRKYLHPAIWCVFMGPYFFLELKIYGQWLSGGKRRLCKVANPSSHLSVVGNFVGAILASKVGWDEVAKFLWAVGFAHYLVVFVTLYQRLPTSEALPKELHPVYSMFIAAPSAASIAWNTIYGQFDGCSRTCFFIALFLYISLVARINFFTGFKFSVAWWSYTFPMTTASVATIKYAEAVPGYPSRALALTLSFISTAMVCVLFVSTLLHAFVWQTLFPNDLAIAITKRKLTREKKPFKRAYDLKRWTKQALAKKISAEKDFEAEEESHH

Variants of: B1
Settings: with srk2e_arath SRK2E

| Variant | effect of a mutation on the interaction |
| --- | --- |
| G139D;G145D | disrupting interaction |

Variants of: B2
Settings: with slac1_arath SLAC1, Q9LD83

| Variant | effect of a mutation on the interaction |
| --- | --- |
| K50N | disrupting interaction |
